T1: human TIGIT over-expressed on cells (human, UniProt Q495A1 22-244)
T1 sequence: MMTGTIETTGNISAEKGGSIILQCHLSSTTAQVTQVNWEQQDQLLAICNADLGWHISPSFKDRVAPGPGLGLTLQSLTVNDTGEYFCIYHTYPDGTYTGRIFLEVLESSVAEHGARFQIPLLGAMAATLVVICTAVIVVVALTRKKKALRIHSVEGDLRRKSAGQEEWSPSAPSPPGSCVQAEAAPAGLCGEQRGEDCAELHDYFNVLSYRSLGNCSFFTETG

T2: Human TIGIT protein with HIS tag (human, UniProt Q495A1 22-141)
T2 construct: A soluble analyte is probably only the extracellular part; also called human TIGIT recombinant protein; not shown: HIS tag
T2 sequence: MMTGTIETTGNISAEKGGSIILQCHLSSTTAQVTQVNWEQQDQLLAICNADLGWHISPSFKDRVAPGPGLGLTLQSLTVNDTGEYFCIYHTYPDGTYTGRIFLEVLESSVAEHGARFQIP


Assays:
[1] = target: T1, human TIGIT over-expressed on cells; experiment: cell-based or functional assay
[2] = target: T1, human TIGIT over-expressed on cells; experiment: cell-based or functional assay; remark: listed apart in the source
[3] = target: T1, human TIGIT over-expressed on cells; experiment: FACS, CHO-K1 cells over-expressing human TIGIT
Experimental: (§1) The mixture was equilibrated for 30 minutes at room temperature and washed three times with FACS buffer (PBS containing 1% BSA). iFluor labeled goat anti-mouse IgG as the secondary antibody was added and incubated at room temperature for 45 min. Finally, the cells were washed 3 time with PBS, and the signal was read by FACS BD Calibur. Data was analyzed with PRISM™ (GraphPad Software, San Diego, Calif.) using non-linear regression and EC₅₀ values were calculated.

[4] = target: T3, cynomolgus TIGIT over-expressed on CHO-K1 cells (cynomolgus, UniProt A0A7N9I9V4 89-312); experiment: FACS, CHO-K1 cells over-expressing cynomolgus TIGIT
T3 construct: whole, on cells; also called CHO-K1/cynomolgus TIGIT cells
Experimental: as §1

[5] = target: T2, Human TIGIT protein with HIS tag; experiment: SPR Biacore T200; antibody Fc-captured, TIGIT-His analyte
Experimental: Binding kinetics of mouse anti-human TIGIT monoclonal antibodies to human TIGIT were determined using a Surface Plasmon Resonance (SPR) biosensor, BIACORE® T200 (GE Healthcare; Little Chalfont, United Kingdom). […] Each mouse anti-human TIGIT monoclonal antibody was immobilized on the sensor chip through the Fc capture method. Human TIGIT protein with HIS tag was used as the analyte. The dissociation (kd) and association (kₐ) rate constants were obtained using the BIACORE® T200 evaluation software. The apparent equilibrium dissociation constants (KD) were calculated from the ratio of kd over kₐ.

[6] = target: T1, human TIGIT over-expressed on cells; experiment: competition FACS, CHO cells expressing human TIGIT; competitor PVR recombinant protein
Experimental: The mixture was equilibrated for 30 minutes at room temperature, and washed three times with FACS buffer (PBS containing 1% BSA). PE/Cy5 Streptavidin secondary antibody was then added to the mixtures and incubated for 15 minutes at room temperature. Subsequently, the cells were washed with FACS buffer and analyzed by flow cytometry. Data was analyzed with PRISM™ (GraphPad Software, San Diego, Calif.) using non-linear regression, and IC₅₀ values were calculated (FIGS. 4A-4B and Table 6).

T3 sequence (A0A7N9I9V4 entry or part of it): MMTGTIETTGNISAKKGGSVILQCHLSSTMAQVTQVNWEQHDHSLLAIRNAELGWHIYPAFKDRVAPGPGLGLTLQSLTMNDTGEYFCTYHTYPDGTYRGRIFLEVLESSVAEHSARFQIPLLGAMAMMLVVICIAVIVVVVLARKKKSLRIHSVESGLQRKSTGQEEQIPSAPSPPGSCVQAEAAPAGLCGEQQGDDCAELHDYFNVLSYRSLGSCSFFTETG

| luciferase signal in T cell activation, Bottom (best-fit) [1] | luciferase signal in T cell activation, EC50 [1] | luciferase signal in T cell activation, Top (best-fit) [1] | IL-2 secretion in T cell activation, Bottom (best-fit) [2] | IL-2 secretion in T cell activation, EC50 [2] | IL-2 secretion in T cell activation, Top (best-fit) [2] | Bottom (best-fit) [3] | EC50 [3] | Top (best-fit) [3] | Bottom (best-fit) [4] | EC50 [4] | Top (best-fit) [4] | Kd [5] | koff [5] | kon [5] | Bottom (best-fit) [6] | IC50 [6] | Top (best-fit) [6] | Binder |
| --- | --- | --- | --- | --- | --- | --- | --- | --- | --- | --- | --- | --- | --- | --- | --- | --- | --- | --- |
| 5.7 | 1.64 nM | 124 | 111 | 0.82 nM | 283 | 15.3 | 0.61 nM | 113 | 15.3 | 1.58 nM | 455 | 0.23 nM | 0.00015 s⁻¹ | 650000 M⁻¹ s⁻¹ | 9.5 | 1 nM | 67.1 | 64G1E9B4 (antibody, V domains shown, Mouse monoclonal antibody; also called mouse anti-human TIGIT monoclonal antibody 64G1E9B4) VH: EVQLQQSGPELVKPGASVKISCKTSGYTFTEHVIHWVKQSHGKSLEWIGGFNPNHDGTIYNQIFRGKATLTVDKSSSTAYMELRSLTSEDSAVYFCTRAAKLLFAMDYWGQGTSVTVSS VL: DIVMTQSHKFMSTSIGDRVSITCKASQHVSNAVVWYQQKPGQSPKLLIYSPSYRFTGVPDRFTGSGSGTDFTFTISSVQAEDLAVYYCQQHYSTPWTFGGGTKLEIK |
| 5.4 | 4.38 nM | 153 | 96.2 | 1.02 nM | 197 | 14.2 | 0.36 nM | 92.7 | 7.6 | 10.2 nM | 120 | 0.72 nM | 0.00093 s⁻¹ | 1.3e+06 M⁻¹ s⁻¹ | 11.8 | 0.6 nM | 68.8 | 121C2F10B5 (antibody, V domains shown, Mouse monoclonal antibody; also called mouse anti-human TIGIT monoclonal antibody 121C2F10B5) VH: EVQLVESGGDLVKPGGSLKLSCAASGFTFSTYGMSWVRQTPDKRLEWVATISSGGSYTYYPDSVKGRFTISRDNAKNTLYLQMSSLKSEDTAMYYCARQVHYFYAMDYWGQGTSVTVSS VL: DIQMTQSPASLSVSVGETVTITCRASENIYSNLAWYQQKQGKSPQVLVYAATNLADGVPSRFSGSRSGTQYSLKINSLQSEDFGSYYCQHFWDNAYTFGGGTKLEIK |
| 6 | 6.42 nM | 147 | 108 | 3.31 nM | 189 | 15.5 | 0.73 nM | 96.9 | 7 | 11.1 nM | 80.6 | 2.3 nM | 0.00083 s⁻¹ | 370000 M⁻¹ s⁻¹ | 8.9 | 2.4 nM | 56.9 | 104G12E12G2 (antibody, V domains shown, Mouse monoclonal antibody; also called mouse anti-human TIGIT monoclonal antibody 104G12E12G2) VH: EVQLQQSGPELVKPGASVKISCKASGYSFTGSYIHWVKQNHVKTLEWIGRINPHNGPTSYNQNFKGKASLTVDLSSSTAYMEVHSLTSEDSAVYYCVRYDGYYGGALDYWGQGTSVTVSS VL: DIQMTQSPSSLSASLGERVSLTCRASQEISGYLSWLQQKPDGTIKRLIYAASTLDSGVPKRFSGSRSGSDYSLTISSLESEDFADYYCLQYASYPYTFGGGTKLEIK |

Source: US20210095028A1 (NANJING LEGEND BIOTECH, published 2021)
